B5: SRP72^1–163 (human SRP72 N-terminal TPR domain, SRP68-binding domain) (domain or fragment, UniProt O76094 1-163, looked up)
chain: MASGGSGGVSVPALWSEVNRYGQNGDFTRALKTVNKILQINKDDVTALHCKVVCLIQNGSFKEALNVINTHTKVLANNSLSFEKAYCEYRLNRIENALKTIESANQQTDKLKELYGQVLYRLERYDECLAVYRDLVRNSQDDYDEERKTNLSAVVAAQSNWEK

Data set [1] in a line: Stability/solubility of SRP68 fragments and of SRP72 without cap. It is filed as physicochemical. Particulars: preliminary experiments.
For data set [2] the following is noted: ref Iakhiaeva et al., 2009, cited from earlier work.
A further data set concerns SRP68. In words: Binding ability of SRP72 mutants with Flag-tagged SRP68 from HCT116 cell lysate. In kind it is cell-based, human. Particulars: HCT116 cells.
The data set “SEC” deals with the molecule itself. In words: SEC. In general terms: SEC sorts molecules by how far they enter the pores of the column.
The data set “AUC” deals with the molecule itself. In words: AUC.
Data set [3] can be described thus: Size-exclusion chromatography. Conditions: Superdex 75 10/300 GL; 20 mM Tris-HCl pH 8.0, 500 mM NaCl. It is filed as physicochemical.
The target in data set [4] is B5. Kind of data set: MST.
Data set [5] addresses T1, SRP72 V136A/R137A double mutant (human, UniProt O76094 1-163, V136A | R137A).
T1 sequence (looked up): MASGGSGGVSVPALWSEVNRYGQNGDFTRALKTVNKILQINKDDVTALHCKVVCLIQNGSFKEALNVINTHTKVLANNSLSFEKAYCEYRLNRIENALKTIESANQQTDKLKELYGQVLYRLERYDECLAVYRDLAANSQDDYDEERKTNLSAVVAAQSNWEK
In words: pull-down.

Read-outs that look alike come from different tables or passages of the source.

Take “570–605: C-terminal SRP68 fragment from previous study (KQANLVHFPPGFQPIPCKPLFFDLALNHVAFPPLED; UniProt Q9UHB9 570-605, looked up, fragment) [reference compound]”: the “degradation / solubility of fragment” value in data set [1] is reported as “either prone to degradation or not soluble”.

B1: residues 530–620: C-terminal SRP68 fragment from previous study (protein, UniProt Q9UHB9 530-620, looked up, fragment)
chain: AAILDANDAHQTETSSSQVKDNKPLVERFETFCLDPSLVTKQANLVHFPPGFQPIPCKPLFFDLALNHVAFPPLEDKLEQKTKSGLTGYIK
Regarding B1, in data set [1], the “degradation / solubility of fragment” value is given as “either prone to degradation or not soluble”.

B2: SRP68/72 complex: heterodimer of SRP68 and SRP72 (protein, UniProt Q9UHB9 1-627; O76094 2-671, looked up)
Signal recognition particle … 1: MAAEKQVPGGGGGGGSGGGGGSGGGGSGGGRGAGGEENKENERPSAGSKANKEFGDSLSLEILQIIKESQQQHGLRHGDFQRYRGYCSRRQRRLRKTLNFKMGNRHKFTGKKVTEELLTDNRYLLLVLMDAERAWSYAMQLKQEANTEPRKRFHLLSRLRKAVKHAEELERLCESNRVDAKTKLEAQAYTAYLSGMLRFEHQEWKAAIEAFNKCKTIYEKLASAFTEEQAVLYNQRVEEISPNIRYCAYNIGDQSAINELMQMRLRSGGTEGLLAEKLEALITQTRAKQAATMSEVEWRGRTVPVKIDKVRIFLLGLADNEAAIVQAESEETKERLFESMLSECRDAIQVVREELKPDQKQRDYILEGEPGKVSNLQYLHSYLTYIKLSTAIKRNENMAKGLQRALLQQQPEDDSKRSPRPQDLIRLYDIILQNLVELLQLPGLEEDKAFQKEIGLKTLVFKAYRCFFIAQSYVLVKKWSEALVLYDRVLKYANEVNSDAGAFKNSLKDLPDVQELITQVRSEKCSLQAAAILDANDAHQTETSSSQVKDNKPLVERFETFCLDPSLVTKQANLVHFPPGFQPIPCKPLFFDLALNHVAFPPLEDKLEQKTKSGLTGYIKGIFGFRS
Signal recognition particle … 2: ASGGSGGVSVPALWSEVNRYGQNGDFTRALKTVNKILQINKDDVTALHCKVVCLIQNGSFKEALNVINTHTKVLANNSLSFEKAYCEYRLNRIENALKTIESANQQTDKLKELYGQVLYRLERYDECLAVYRDLVRNSQDDYDEERKTNLSAVVAAQSNWEKVVPENLGLQEGTHELCYNTACALIGQGQLNQAMKILQKAEDLCRRSLSEDTDGTEEDPQAELAIIHGQMAYILQLQGRTEEALQLYNQIIKLKPTDVGLLAVIANNIITINKDQNVFDSKKKVKLTNAEGVEFKLSKKQLQAIEFNKALLAMYTNQAEQCRKISASLQSQSPEHLLPVLIQAAQLCREKQHTKAIELLQEFSDQHPENAAEIKLTMAQLKISQGNISKACLILRSIEELKHKPGMVSALVTMYSHEEDIDSAIEVFTQAIQWYQNHQPKSPAHLSLIREAANFKLKYGRKKEAISDLQQLWKQNPKDIHTLAQLISAYSLVDPEKAKALSKHLPSSDSMSLKVDVEALENSAGATYIRKKGGKVTGDSQPKEQGQGDLKKKKKKKKGKLPKNYDPKVTPDPERWLPMRERSYYRGRKKGKKKDQIGKGTQGATAGASSELDASKTVSSPPTSPRPGSAATVSASTSNIIPPRHQKPAGAPATKKKQQQKKKKGGKGGW
As for B2, the complex stability result is on record as “remains stable” in data set [2] (1 M NaCl) and “stability in 2 M urea” in data set [2] (2 M urea).

B3: SRP72 V53I: cancer-associated SRP72 mutant (protein, UniProt O76094 2-671, looked up, variant V53I)
Signal recognition particle …: ASGGSGGVSVPALWSEVNRYGQNGDFTRALKTVNKILQINKDDVTALHCKVICLIQNGSFKEALNVINTHTKVLANNSLSFEKAYCEYRLNRIENALKTIESANQQTDKLKELYGQVLYRLERYDECLAVYRDLVRNSQDDYDEERKTNLSAVVAAQSNWEKVVPENLGLQEGTHELCYNTACALIGQGQLNQAMKILQKAEDLCRRSLSEDTDGTEEDPQAELAIIHGQMAYILQLQGRTEEALQLYNQIIKLKPTDVGLLAVIANNIITINKDQNVFDSKKKVKLTNAEGVEFKLSKKQLQAIEFNKALLAMYTNQAEQCRKISASLQSQSPEHLLPVLIQAAQLCREKQHTKAIELLQEFSDQHPENAAEIKLTMAQLKISQGNISKACLILRSIEELKHKPGMVSALVTMYSHEEDIDSAIEVFTQAIQWYQNHQPKSPAHLSLIREAANFKLKYGRKKEAISDLQQLWKQNPKDIHTLAQLISAYSLVDPEKAKALSKHLPSSDSMSLKVDVEALENSAGATYIRKKGGKVTGDSQPKEQGQGDLKKKKKKKKGKLPKNYDPKVTPDPERWLPMRERSYYRGRKKGKKKDQIGKGTQGATAGASSELDASKTVSSPPTSPRPGSAATVSASTSNIIPPRHQKPAGAPATKKKQQQKKKKGGKGGW
On to B3, for which, in the data set on SRP68, the “binding ability compared with wild-type (HCT116)” value is reported as “severely compromised or abolished the binding ability”.

B4: SRP72 Y86C: cancer-associated SRP72 mutant (protein, UniProt O76094 2-671, looked up, variant Y86C)
Signal recognition particle …: ASGGSGGVSVPALWSEVNRYGQNGDFTRALKTVNKILQINKDDVTALHCKVVCLIQNGSFKEALNVINTHTKVLANNSLSFEKACCEYRLNRIENALKTIESANQQTDKLKELYGQVLYRLERYDECLAVYRDLVRNSQDDYDEERKTNLSAVVAAQSNWEKVVPENLGLQEGTHELCYNTACALIGQGQLNQAMKILQKAEDLCRRSLSEDTDGTEEDPQAELAIIHGQMAYILQLQGRTEEALQLYNQIIKLKPTDVGLLAVIANNIITINKDQNVFDSKKKVKLTNAEGVEFKLSKKQLQAIEFNKALLAMYTNQAEQCRKISASLQSQSPEHLLPVLIQAAQLCREKQHTKAIELLQEFSDQHPENAAEIKLTMAQLKISQGNISKACLILRSIEELKHKPGMVSALVTMYSHEEDIDSAIEVFTQAIQWYQNHQPKSPAHLSLIREAANFKLKYGRKKEAISDLQQLWKQNPKDIHTLAQLISAYSLVDPEKAKALSKHLPSSDSMSLKVDVEALENSAGATYIRKKGGKVTGDSQPKEQGQGDLKKKKKKKKGKLPKNYDPKVTPDPERWLPMRERSYYRGRKKGKKKDQIGKGTQGATAGASSELDASKTVSSPPTSPRPGSAATVSASTSNIIPPRHQKPAGAPATKKKQQQKKKKGGKGGW
Regarding B4, the “binding ability compared with wild-type (HCT116)” value with SRP68 is reported as “severely compromised or abolished the binding ability”.
As to B5, the “stoichiometry N” value in the data set “SEC” was found to be 2; in the data set “AUC”, 4.

B6: Y132A/R133A: double mutant of SRP72 in helix α8 (protein)
chain: MASGGSGGVSVPALWSEVNRYGQNGDFTRALKTVNKILQINKDDVTALHCKVVCLIQNGSFKEALNVINTHTKVLANNSLSFEKAYCEYRLNRIENALKTIESANQQTDKLKELYGQVLYRLERYDECLAVAADLVRNSQDDYDEERKTNLSAVVAAQSNWEK
modifications: left off: His6, N-terminal, state not stated
As for B6, the “oligomeric state in solution (SEC)” value in data set [3] was “eluted as monomers”.

B7: apo-SRP72: human SRP72 N-terminal TPR domain, residues 1–163, apo form (protein)
chain: MASGGSGGVSVPALWSEVNRYGQNGDFTRALKTVNKILQINKDDVTALHCKVVCLIQNGSFKEALNVINTHTKVLANNSLSFEKAYCEYRLNRIENALKTIESANQQTDKLKELYGQVLYRLERYDECLAVYRDLVRNSQDDYDEERKTNLSAVVAAQSNWEK
modifications: left off: His6, N-terminal, cleaved
B7: in data set [3], the “oligomeric state in solution (SEC)” value was “mainly as a dimer in solution”.

B8: V136A/R137A: monomeric double mutant of SRP72 in helix α8 (protein)
chain: MASGGSGGVSVPALWSEVNRYGQNGDFTRALKTVNKILQINKDDVTALHCKVVCLIQNGSFKEALNVINTHTKVLANNSLSFEKAYCEYRLNRIENALKTIESANQQTDKLKELYGQVLYRLERYDECLAVYRDLAANSQDDYDEERKTNLSAVVAAQSNWEK
modifications: left off: His6, N-terminal, state not stated
Take B8: in data set [3], the “oligomeric state in solution (SEC)” value was “eluted as monomers”.

B9: GST-tagged SRP68 residues 588−610 (23-residue peptide of SRP68) (peptide, UniProt Q9UHB9 588-610, looked up)
chain: PLFFDLALNHVAFPPLEDKLEQK
In turn, B9 gave a Kd in data set [4] of 730 ± 200 nM. Also, the binding result in data set [5] was “binds”.

As usually defined, the stoichiometry N is the number of molecules, sites or subunits per partner or assembly. What is called Kd is the free concentration of one partner at which half of the binding sites on the other are occupied at equilibrium, for simple one-to-one binding. Read a high Kd as a looser complex.

Values taken from publication PMC5907831 (Journal of Molecular Cell Biology, 2017).
